According to patent publication US20260193307A1 (ASKGENE PHARMA, published 2026):

How the values were obtained:
IL-2 [1] = biological target: T1, IL-2 (UniProt P60568 21-153); assay: ForteBio (BLI), purified scFv-Fc to IL-2
IL-2 [2] = biological target: T1, IL-2; assay: cell-based or functional assay

T1 sequence (P60568 21-153 limits assumed): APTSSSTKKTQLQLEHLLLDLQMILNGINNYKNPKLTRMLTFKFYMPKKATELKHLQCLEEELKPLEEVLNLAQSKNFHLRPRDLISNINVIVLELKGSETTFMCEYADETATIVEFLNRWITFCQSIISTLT

Binder | Kd (IL-2 [1]) | Response (IL-2 [1]) | IC50, CTLL2 cell-based IL-2 activity inhibition assay (50 nM IL-2) (IL-2 [2])
K1-69H5 scFv-Fc (JR8.144.3) (Fc fusion, Purified scFv-Fc homodimer; also called JR8.144.3 K1-69H5; not shown: Fc fragment (human Fc domain)) EIVLTQSPGTLSLSPGERATLSCRASQSVSSSYLAWYQQKPGQAPRLLIYGASSRATGIPDRFSGSGSGTDFTLTISRLEPEDFAVYYCQQYSRAPGTFGQGTKVEIKAGGGGSGGGGSGGGGSQVQLVQSGAEVKKPGSSVKVSCKASGGTFSSYGIHWVRQAPGQGLEWMGGIIPILGTANYAQKFQGRVTITADESTSTAYMELSSLRSEDTAVYYCAVPFFDVWGQGTLVTVSS | < 1 pM | 3 | 11300 pM
K1-69C7 scFv-Fc (JR8.153.1) (Fc fusion, Purified scFv-Fc homodimer; also called JR8.153.1 K1-69C7; not shown: Fc fragment (human Fc domain)) DIQMTQSPSSLSASVGDRVTITCRASQDISNYLNWYQQKPGKAPKLLIYGASSLQSGVPSRFSGSGSGTDFTLTISSLQPEDFATYYCQQTYTIPLTFGQGTKVEIKAGGGGSGGGGSGGGGSQVQLVQSGAEVKKPGSSVKVSCKASGGTFTSYAINWVRQAPGQGLEWMGRIIPIIGRVDYAQKFQGRVTITADESTSTAYMELSSLRSEDTAVYYCARGFVGGFDVWGQGTLVTVSS | 117 pM | 3.5 | 7000 pM

Now from value to binder:

Kd (IL-2 [1]) | Response (IL-2 [1]) | IC50, CTLL2 cell-based IL-2 activity inhibition assay (50 nM IL-2) (IL-2 [2]) | Binder
< 1 pM | 3 |  | K3-15F7 scFv-Fc (JR8.144.4) (Fc fusion, Purified scFv-Fc homodimer; also called JR8.144.4 K3-15F7; not shown: Fc fragment (human Fc domain)) DIQMTQSPSSLSASVGDRVTITCRASQDIRRYLNWYQQKPGKAPKLLIYAASSLQSGVPSRFSGSGSGTDFTLTISSLQPEDFATYYCQQAYSIPLTFGQGTKVEIKGGGGSGGGGSGGGGSEVQLVESGGGLVKPGGSLRLSCAASGFTFSNAWMSWVRQAPGKGLEWVGRIKSKTAGGTTDYAAPVKGRFTISRDDSKNTLYLQMNSLKTEDTAVYYCARDWWYLDFDYWGQGTLVTVSS
605 pM | 3.1 |  | K3-30B12 scFv-Fc (JR8.156.6) (Fc fusion, Purified scFv-Fc homodimer; also called JR8.156.6 K3-30B12; not shown: Fc fragment (human Fc domain)) DIQMTQSPSSLSASVGDRVTITCRASQDISTYLNWYQQKPGKAPKLLIYDASSLQSGVPSRFSGSGSGTDFTLTISSLQPEDFATYYCQQSYSAPLTFGQGTKVEIKAGGGGSGGGGSGGGGSEVQLLESGGGLVQPGGSLRLSCAASGFTFSTYAMSWVRQAPGKGLEWVSTISGSGVRTYYADSVKGRFTISRDNSKNTLYLQMNSLRAEDTAVYYCARETYIYGPFDVWGQGTLVTVSS
